A short description of the series: amyloid nucleation score (Sup35N fusion, yeast selection) (log enrichment); library NNK2; higher = more nucleation; inactive = no reads after selection. In short, it runs like this: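 Sup35N fusions to peptides of 20 random codons were expressed in psi-negative yeast, induced 24 hours with 100 μM copper sulfate, and grown 7 days at 30°C on medium lacking adenine and uracil. Input and output plasmid inserts were sequenced by Illumina. The nucleation score is the DiMSum log enrichment of output over input reads, centred on the mode score of non-aggregating sequences. Sequences with under 100 input reads were excluded.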

± gives the uncertainty stated by the source.

For the substance VWLEACGFSRIFSLQFLVSV, the amyloid nucleation score is -0.476 ± 0.76.

On to CMVIRSW, for which the amyloid nucleation score was -0.064 ± 0.34.

With LSRQGRLESVKDGRSMWVSG, the amyloid nucleation score is -0.283 ± 1.1.

DGNFHNFLLCNNEMFREMDC displayed an amyloid nucleation score of 2.63 ± 0.13.

Substance ISAWAWHQVTWRIPGALVVG returned an amyloid nucleation score of 0.294 ± 1.1.

HNRSFILNTAKFLVVNNPLA: the amyloid nucleation score result is “inactive”.

As to HIARCNNWNACLMSRRHNCW, the amyloid nucleation score was found to be 3.6 ± 0.061.

RDFYRWNMQ yielded an amyloid nucleation score of 3.8 ± 0.069.

For the substance SLELA, the amyloid nucleation score was 0.472 ± 0.8.

Turning to TSVVNLNRMAFKTKFLQNTI, the amyloid nucleation score was -1.1 ± 1.1.

Turning to TCLTGKAVSVDHS, the amyloid nucleation score entry was “inactive”.

Substance DFSLGLWRVTDIDYVSNVSL displayed an amyloid nucleation score of 0.151 ± 0.8.

Consider FYWNMYGDFDFDPSAPGTNG, for which the amyloid nucleation score entry was “inactive”.

As to ACNWLESFIKCFICVWYRDK, the amyloid nucleation score is 7.73 ± 0.079.

In the case of VLTVWPYHCAIVEILSGCVL, the amyloid nucleation score was 5.98 ± 0.081.

IAMFT: the amyloid nucleation score came to 6.299 ± 0.044.

Regarding SVYVANYGYPRSGLN, the amyloid nucleation score is 7.02 ± 0.078.

On to RDLASSSS, for which the amyloid nucleation score is -1.1 ± 0.41.

The substance VQDYFFSCFATRSV returned an amyloid nucleation score of 3.26 ± 0.059.

FSLLD: the amyloid nucleation score is -0.264 ± 0.45.

Take NFIVIALRGTDNTYSLSGLS: the amyloid nucleation score came out at 6.407 ± 0.043.

In the case of WEYTG, the amyloid nucleation score came to 0.242 ± 0.74.

Consider HHNTCKGM, for which the amyloid nucleation score amounted to 4.35 ± 0.062.

With TVYGHRVGGRSFVL, the amyloid nucleation score was determined as 0.295 ± 0.28.

For the substance WWSSDS, the amyloid nucleation score is 1.73 ± 0.078.

In the case of CSTVLRGCVLGQYLYGYSSG, the amyloid nucleation score was -0.258 ± 0.41.

The substance NWLQGVYCCGKVIGSLTSTD gave an amyloid nucleation score of 8.775 ± 0.043.

In turn, EGNNCW had an amyloid nucleation score of 0.22 ± 0.23.

Substance DSFIIASRL gave an amyloid nucleation score of 1.69 ± 0.1.

Take IYQIGDEQHDFLCPLKVFVN: the amyloid nucleation score is -0.336 ± 0.76.

Consider FCSCWNSEFNENSFVWRNIL, for which the amyloid nucleation score is 5.35 ± 0.058.

Take IYLRESSVYILVFLRTFLVA: the amyloid nucleation score is -0.542 ± 0.64.

SLSCGLYGYMTNSCSYVHRT showed an amyloid nucleation score of 4.22 ± 0.053.

For the substance IKTSDYNHFRYWSKRPYVSW, the amyloid nucleation score was -0.738 ± 1.1.

As to RVRSGKKHDW, the amyloid nucleation score was 1.01 ± 0.14.

Regarding GRYHIDSRKGKSNKSRGNIY, the amyloid nucleation score result was “inactive”.

Turning to MSRNF, the amyloid nucleation score stood at 4.87 ± 0.076.

In the case of TIFHLRDSYINHAKLSSLHG, the amyloid nucleation score result was “inactive”.

For the substance MDVMVDW, the amyloid nucleation score is -0.343 ± 0.63.

With DYIEKGFPGLPYHSCGSSTF, the amyloid nucleation score entry was “inactive”.

Turning to VRFIAR, the amyloid nucleation score entry is “inactive”.

Consider YTMASLS, for which the amyloid nucleation score was 1.74 ± 0.13.

Regarding WWKQWRYTGYLLLSHLSNRS, the amyloid nucleation score is -0.087 ± 0.42.

The substance RNAKMMTSSLVYNWFVFAER displayed an amyloid nucleation score of 5.353 ± 0.045.

As for MCFSPCCRWPRIRQEDQG, the amyloid nucleation score was found to be 0.531 ± 0.64.

For FSYRCFINTSQFYSAIKIFL, the amyloid nucleation score is 0.691 ± 0.14.

As to AIDAFFLSV, the amyloid nucleation score is -0.191 ± 0.26.

As to NSLANDTQIRKNCLSIV, the amyloid nucleation score was -0.474 ± 1.1.

Consider RKPLLHLVRFRWNNPLDNE, for which the amyloid nucleation score is -1.03 ± 0.76.

For MVMTYLWARGCCMKLGVQFG, the amyloid nucleation score is 0.396 ± 0.66.

Substance VKIMMELPLKIDGFLSHVRR had an amyloid nucleation score of 0.088 ± 0.24.

Consider PLISRYDYFVCIRILSHSDN, for which the amyloid nucleation score was 0.98 ± 0.81.

Substance AAQIHYSKYNDDVYFSFEEK had an amyloid nucleation score of 0.283 ± 0.37.

QIYSMDMQRMNKCCCEDGEV: the amyloid nucleation score result was “inactive”.

DCLLSFVRVRSSPSVRY showed an amyloid nucleation score of 4.47 ± 0.056.

Substance YCRHGGNRASL had an amyloid nucleation score of 0.783 ± 0.53.

Regarding FFNMMSK, the amyloid nucleation score was -1.72 ± 0.62.

As to DRIAETSRYKRSENSLSLV, the amyloid nucleation score is 0.099 ± 0.53.

In turn, PLLVLVNFLSGKSPQAHCSH returned an amyloid nucleation score of 3.07 ± 0.077.

Turning to CDFLWWPTQFANRRTKVGVW, the amyloid nucleation score turned out to be 0.083 ± 0.76.

Turning to IISENAYCLPMIMT, the amyloid nucleation score was -0.437 ± 0.54.

Consider KNNIWVIYPFVNG, for which the amyloid nucleation score came to 6.434 ± 0.064.

Take CKLTRGSPMSYSEVR: the amyloid nucleation score was -0.188 ± 0.29.

RSPDKDSMQTTLLIRRVTSW yielded an amyloid nucleation score of 1.14 ± 0.48.

In turn, LVFGVLQVCVLCSVTDNLGA returned an amyloid nucleation score of 0.159 ± 0.35.

FDAMSSFLQYLLTHKMWVGD returned an amyloid nucleation score of 0.799 ± 0.43.

As to CHVCFRETARYMCVGWYYGS, the amyloid nucleation score was -0.283 ± 0.65.

CTMYLALRGVW had an amyloid nucleation score of 4.56 ± 0.056.

For YFRYMLW, the amyloid nucleation score turned out to be 4.16 ± 0.1.

For KLQTLLQWFGLY, the amyloid nucleation score is -0.392 ± 0.41.

As for VRFSQKYCSVDIAMQRLFMV, the amyloid nucleation score is -0.625 ± 0.25.

Take WWVPCSLYWYSAEGPGLARA: the amyloid nucleation score came out at 0.007 ± 0.31.

The substance DFCYFSFRPLHLRFQNTDWP came in with an amyloid nucleation score of 0.007 ± 1.1.

HSWILNHNIDVTIGNVTWSG returned an amyloid nucleation score of 6.863 ± 0.03.

As to SSGGGYWLLWVE, the amyloid nucleation score is -0.559 ± 0.76.

Take CDSVLPRLLNYKYTKNK: the amyloid nucleation score turned out to be 0.14 ± 0.63.

In the case of VSNAGSSTKDILGIHRS, the amyloid nucleation score is -0.06 ± 1.1.

On to GMKSIDVL, for which the amyloid nucleation score is -1.21 ± 0.36.

The substance GNVITDGESMMDCKGTMRSC yielded an amyloid nucleation score of 0.584 ± 0.21.

For the substance HKGVM, the amyloid nucleation score was -1.06 ± 0.5.

NHSMRFVLTMPILWKNQKAG: the amyloid nucleation score was 0.228 ± 1.

On to TIFGRENYEDVKSASEVGLS, for which the amyloid nucleation score stood at 0.135 ± 0.79.

Turning to MKYSSFINLLPTTWQHYTMN, the amyloid nucleation score is -0.119 ± 0.65.

VMLSLMDKLEYMPV yielded an amyloid nucleation score of 1.31 ± 0.32.

Take VRWNIVKSCAVMDSNGIMWV: the amyloid nucleation score is 0.432 ± 0.33.

Turning to LMAHTSFVDFGVKN, the amyloid nucleation score was -0.266 ± 0.23.

As to LTMQKWLF, the amyloid nucleation score came out at 0.28 ± 0.62.

VIYMNAGLYLRLKRRFDYVV returned an amyloid nucleation score of 0.72 ± 0.58.

On to NRECCTSDLRIMNVLRPL, for which the amyloid nucleation score is -0.028 ± 0.18.

As for IRYNLGGDQLG, the amyloid nucleation score is -0.805 ± 0.44.

NGRIICNESMSLYKSEV showed an amyloid nucleation score of 0.842 ± 0.8.

For TSCGCTW, the amyloid nucleation score was 0.092 ± 1.1.

Regarding HSLRGTWMGMVSASCTPVDM, the amyloid nucleation score is 4.27 ± 0.057.

With NNRYELCSSQH, the amyloid nucleation score result was “inactive”.

For SNCRLGKGYYNCF, the amyloid nucleation score is -0.833 ± 0.41.

Consider NVLDASRNLE, for which the amyloid nucleation score is 1.14 ± 0.42.

For the substance QNWVCMNRVYDLKDTYEIDL, the amyloid nucleation score is -0.526 ± 0.35.

Turning to RYFRATPKVCRLH, the amyloid nucleation score stood at 0.175 ± 0.26.

Turning to AVDSHVIYSV, the amyloid nucleation score is -0.96 ± 0.45.

On to TCLAESGVAMSVS, for which the amyloid nucleation score was 0.151 ± 0.29.

In the case of RLFYGCITGIVVSSILGVCM, the amyloid nucleation score turned out to be 2.47 ± 0.21.

Turning to CYTNYIYVLAAMWTSEIRKV, the amyloid nucleation score entry is “inactive”.

Consider NNGMFGNFSKSDYFDKWRYM, for which the amyloid nucleation score entry was “inactive”.

Substance CFGVRDSGRYFDTLSNVRSR displayed an amyloid nucleation score of 1.11 ± 0.68.

With THLHQD, the amyloid nucleation score is -1.55 ± 0.76.

The substance SVFLSKDIKGVNQCGGLWLS returned an amyloid nucleation score of 0.296 ± 0.25.

Regarding FKRPDSKIVCDVNVKGALKE, the amyloid nucleation score result was “inactive”.

Take RMRCTIMLMTGKRTCYLMRE: the amyloid nucleation score was -0.216 ± 0.41.

In the case of CMRGLVKAGMIMTVFDRLSY, the amyloid nucleation score was -1.22 ± 1.1.

With PARLCAVVL, the amyloid nucleation score came out at 0.066 ± 0.76.

In turn, IKLQMSLATAQIETGTHGLH showed an amyloid nucleation score of 3.51 ± 0.16.

Take NRADGDKFSSSPSPTWKYME: the amyloid nucleation score was -0.081 ± 1.1.

For LRSCRMSDDMK, the amyloid nucleation score worked out at 1.18 ± 0.34.

Take IMCRETRLYMGMFVFDQLPQ: the amyloid nucleation score is 6.46 ± 0.079.

Regarding WVSGLPHNYNSSFSTAINFS, the amyloid nucleation score amounted to 0.907 ± 0.3.

Turning to TFVLLRSW, the amyloid nucleation score was 2.34 ± 0.13.

On to SSGVRPNNLVSFEFHCLELG, for which the amyloid nucleation score is -0.28 ± 0.54.

Substance AYAKGYCLLSPVLDWRLHFS had an amyloid nucleation score of 2.52 ± 0.13.

In turn, PRDRLSSGPLQWHGFIIGYV had an amyloid nucleation score of 0.676 ± 0.23.

In the case of RSDVFIGTSIFGALSCV, the amyloid nucleation score is -0.025 ± 0.45.

Substance ICACKSY came in with an amyloid nucleation score of 5.28 ± 0.076.

For VIKTG, the amyloid nucleation score result was “inactive”.

As for RIVMKRRFYCKSWSLIVHPG, the amyloid nucleation score was -0.826 ± 0.28.

TCRTSTRRPIGWLSWYVG registered an amyloid nucleation score of 0.654 ± 0.43.

The substance ICKGRCVASGWV showed an amyloid nucleation score of 1.61 ± 0.14.

In turn, RLLSTCMILMMASRTCYVYN yielded an amyloid nucleation score of 0.69 ± 0.52.

In the case of RLINRSDEVYSFLFKRRGSK, the amyloid nucleation score entry was “inactive”.

VFGWS displayed an amyloid nucleation score of 0.745 ± 0.22.

Substance MRLNYVYGCSFLDRIGT gave an amyloid nucleation score of 0.57 ± 0.33.

Substance LSHLISVVRRVRKYSYGEVV came in with an amyloid nucleation score of 0.389 ± 0.64.

Turning to HSFNYKFLLTI, the amyloid nucleation score is -0.001 ± 0.54.

Take LVRPILLYYSMLV: the amyloid nucleation score entry is “inactive”.

The substance INVHSSSG registered an amyloid nucleation score of 0.344 ± 0.36.

For SRKTIVGFYGVPGVRYACIW, the amyloid nucleation score entry is “inactive”.

Take RRYMSVDSK: the amyloid nucleation score result is “inactive”.

As to QFRLQWGLLVQCAGDSVLVM, the amyloid nucleation score is -0.085 ± 0.61.

In the case of INGQDKHRHWSFTLFYKKRY, the amyloid nucleation score is -0.145 ± 1.1.

As to CRLVEAEYSSRKRLQVSLWA, the amyloid nucleation score is 0.102 ± 0.79.

Consider VNFYSALSSDNTRMYWLLTV, for which the amyloid nucleation score was -0.898 ± 1.1.

As for WYNILLHNSAAEYLTY, the amyloid nucleation score is -0.296 ± 0.34.

IVLSGWLSSPSYASWDFCMR: the amyloid nucleation score turned out to be 0.07 ± 0.77.

On to VLIFMIKVWARITLMGYSRL, for which the amyloid nucleation score is -0.666 ± 0.3.

Values taken from the supplement of paper PMC12042874.
